Drawing on publication PMC7311171 (2020), this text covers response for seven variants.

The labels stand for the following.
B1: BBS7, in vitro translated, tagged with a 6xMyc epitope [not stated] / GST-SMO^H8 (GST fused to the first 19 amino acids of SMO^Ctail, aa 543–559) [mouse] (parent complex)
chain 1: MDLILNRMDYLQVGVTSQKTMKLIPASRHRATQKVVIGDHDGVVMCFGMKKGEAAAVFKTLPGPKIARLELGGVINTPQEKIFIAAASEIRGFTKRGKQFLSFETNLTESIKAMHISGSDLFLSASYIYNHYCDCKDQHYYLSGDKINDVICLPVERLSRITPVLACQDRVLRVLQGSDVMYAVEVPGPPTVLALHNGNGGDSGEDLLFGTSDGKLALIQITTSKPVRKWEIQNEKKRGGILCIDSFDIVGDGVKDLLVGRDDGMVEVYSFDNANEPVLRFDQMLSESVTSIQGGCVGKDSYDEIVVSTYSGWVTGLTTEPIHKESGPGEELKINQEMQNKISSLRNELEHLQYKVLQERENYQQSSQSSKAKSAVPSFGINDKFTLNKDDASYSLILEVQTAIDNVLIQSDVPIDLLDVDKNSAVVSFSSCDSESNDNFLLATYRCQADTTRLELKIRSIEGQYGTLQAYVTPRIQPKTCQVRQYHIKPLSLHQRTHFIDHDRPMNTLTLTGQFSFAEVHSWVVFCLPEVPEKPPAGECVTFYFQNTFLDTQLESTYRKGEGVFKSDNISTISILKDVLSKEATKRKINLNISYEINEVSVKHTLKLIHPKLEYQLLLAKKVQLIDALKELQIHEGNTNFLIPEYHCILEEADHLQEEYKKQPAHLERLYG
chain 2: KATLLIWRRTWCRLTGH

Variants of B1 are the subject of the test. Briefly: GST capture assay (pull-down) of in vitro translated Myc-BBS7, quantified from anti-Myc blot; parent: 4.4; read off a plot.
In the case of chain 2 W7A, chain 2 W11A, the response was ~0.28 ‰.
As for chain 2 R8A, the response is ~1.3 ‰.
With chain 2 C12A the figure was ~4.9 ‰; with chain 2 W7A, chain 2 R8A, chain 2 W11A, chain 2 C12A, ~0.12 ‰; with chain 2 R8A, chain 2 C12A, ~0.9 ‰.
With chain 2 W11A the figure was ~3.6 ‰; with chain 2 W7A, ~0.85 ‰.
